doi:10.1101/343046 (bioRxiv, 2018)

T1: GST-KBP (Kinesin-Binding Protein) (human, UniProt Q96EK5 1-621)
T1 sequence (looked up): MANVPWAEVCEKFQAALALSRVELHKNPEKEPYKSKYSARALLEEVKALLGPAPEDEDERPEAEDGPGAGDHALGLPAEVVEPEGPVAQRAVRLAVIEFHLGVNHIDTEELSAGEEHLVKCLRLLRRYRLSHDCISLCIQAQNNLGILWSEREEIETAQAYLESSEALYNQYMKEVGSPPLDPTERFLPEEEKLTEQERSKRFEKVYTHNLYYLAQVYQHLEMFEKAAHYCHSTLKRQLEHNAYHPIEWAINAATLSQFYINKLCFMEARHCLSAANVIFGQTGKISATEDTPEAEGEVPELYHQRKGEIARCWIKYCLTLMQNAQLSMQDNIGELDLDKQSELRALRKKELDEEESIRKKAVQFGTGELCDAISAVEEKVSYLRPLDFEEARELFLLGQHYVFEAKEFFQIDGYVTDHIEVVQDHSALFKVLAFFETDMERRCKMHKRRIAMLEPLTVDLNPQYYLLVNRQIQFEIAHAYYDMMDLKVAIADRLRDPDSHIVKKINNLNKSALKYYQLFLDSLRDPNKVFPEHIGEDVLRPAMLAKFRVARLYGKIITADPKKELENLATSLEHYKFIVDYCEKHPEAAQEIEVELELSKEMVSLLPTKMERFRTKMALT


Molecular target: T1, GST-KBP (Kinesin-Binding Protein)
Assay: pull-down

binding result | Binder
binds | His6-KIF15-N420 (domain or fragment, human, UniProt Q9NS87 1-420, looked up) MAPGCKTELRSVTNGQSNQPSNEGDAIKVFVRIRPPAERSGSADGEQNLCLSVLSSTSLRLHSNPEPKTFTFDHVADVDTTQESVFATVAKSIVESCMSGYNGTIFAYGQTGSGKTFTMMGPSESDNFSHNLRGVIPRSFEYLFSLIDREKEKAGAGKSFLCKCSFIEIYNEQIYDLLDSASAGLYLREHIKKGVFVVGAVEQVVTSAAEAYQVLSGGWRNRRVASTSMNRESSRSHAVFTITIESMEKSNEIVNIRTSLLNLVDLAGSERQKDTHAEGMRLKEAGNINRSLSCLGQVITALVDVGNGKQRHVCYRDSKLTFLLRDSLGGNAKTAIIANVHPGSRCFGETLSTLNFAQRAKLIKNKAVVNEDTQGNVSQLQAEVKRLKEQLAELASGQTPPESFLTRDKKKTNYMEYFQE
binds | KIF18A-N480-GFP-His6 (domain or fragment, human, UniProt Q8NI77 1-480, looked up) MSVTEEDLCHHMKVVVRVRPENTKEKAAGFHKVVHVVDKHILVFDPKQEEVSFFHGKKTTNQNVIKKQNKDLKFVFDAVFDETSTQSEVFEHTTKPILRSFLNGYNCTVLAYGATGAGKTHTMLGSADEPGVMYLTMLHLYKCMDEIKEEKICSTAVSYLEVYNEQIRDLLVNSGPLAVREDTQKGVVVHGLTLHQPKSSEEILHLLDNGNKNRTQHPTDMNATSSRSHAVFQIYLRQQDKTASINQNVRIAKMSLIDLAGSERASTSGAKGTRFVEGTNINRSLLALGNVINALADSKRKNQHIPYRNSKLTRLLKDSLGGNCQTIMIAAVSPSSVFYDDTYNTLKYANRAKDIKSSLKSNVLNVNNHITQYVKICNEQKAEILLLKEKLKAYEEQKAFTNENDQAKLMISNPQEKEIERFQEILNCLFQNREEIRQEYLKLEMLLKENELKSFYQQQCHKQIEMMCSEDKVEKATGKR
